According to patent US20250195685A1 (CAPSTAN THERAPEUTICS, published 2025):
Residue numbers refer to the chain shown, from its start.

How the values were obtained:
[1] = target: T1, human CD8αα homodimer, recombinant protein (Acro Biosystems) (human, UniProt P01732 22-182); experiment: BLI steady state, whole hIgG1-LALAPA antibody on CD8α-His (Ni-NTA sensor), 30 °C
T1 construct: also called CD8αα antigen; biotinylated CD8α recombinant protein (CDA-H82E3)
Procedure: To assess affinity of whole antibodies, steady state analysis was used as the bivalent nature of both whole antibody and CD8α complicates kinetic analysis. 50 nM CD8α-His (that is, CD8α with a C-terminal oligohistidine tag; Acro) was immobilized on Ni-NTA sensor probes. Binding was analyzed with a three-fold antibody dilutions series: 60 nM, 20 nM, 6.67 nM, 2.22 nM, 0.74 nM, and 0.25 nM. The antigen-loaded sensors were incubated in the diluted solutions to capture the whole IgG antibody for 300 s to record the association phase. Sensors were incubated in the kinetic buffer for 900 s to record the dissociation phase. The spin speed was 1000 rpm for all steps except the antigen loading step which was 400 rpm to control density of the antigen. The temperature of the performed assays was at 30° C. during the association and dissociation phases. The sensor data were baseline subtracted and further analyzed in GatorOne software (version 2.10) to determine the equilibrium dissociation constants (KD) of the antibodies by fitting the signals of the steady states to the 1:1 binding model.

insulin (Sigma) = target: T2, insulin (Sigma); experiment: polyreactive ELISA, insulin coated, 100 nM antibody
T2 construct: Antigen of the polyreactivity ELISA
T2 sequence (P01308 25-54, chain 1 of 2): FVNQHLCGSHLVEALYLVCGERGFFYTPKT
T2 sequence (P01308 90-110, chain 2 of 2): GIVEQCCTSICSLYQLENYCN
Procedure: Insulin ([…]; Sigma) and dsDNA ([…]; Sigma) were coated onto 96-well high-binding ELISA microplates (Corning) at 50 μL per well overnight at 4° C. Plates were blocked with PBS with 0.5% BSA (blocking buffer) at room temperature (RT) for 1 h, followed by three washes with PBST (PBS with 0.1% Tween-20). 50 μL of 100 nM antibody in blocking buffer was added to each well and incubated at RT for 1 h, followed by six washes with 100 μL of PBS. 50 μL of diluted anti-human IgG-horseradish peroxidase (HRP) conjugate (Jackson ImmunoResearch) was added to the wells and incubated for 1 h followed by another six washes. Finally, 50 μL of 3, 3′, 5, 5′-Tetramethylbenzidine (TMB) substrate (Fisher Scientific) was added to each well to develop the detection signal. The reactions were stopped by adding 50 μL of 2 M sulfuric acid to each well. The absorbance was measured at 450 nm using a multimode microplate reader. Ustekinumab as the control antibody with low polyreactivity and bococizumab as a highly polyreactive antibody control were also included in the polyreactive ELISA assessment.
The first assessment tested for low non-specific binding to dsDNA and insulin by ELISA. […] Thus, by this standard, none of the tested antibodies were polyreactive.

[2] = target: T3, human CD8 on cells (CD8-overexpressing HEK293T cells, SupT1, HPB-ALL, human T cells, transfected HEK293 of … (human, UniProt P01732 22-235)); experiment: flow cytometry on CD8-overexpressing HEK293T cells, non-linear fit of normalized gMFI
T3 construct: whole, on cells; also called cell surface CD8
T3 sequence (P01732 22-235): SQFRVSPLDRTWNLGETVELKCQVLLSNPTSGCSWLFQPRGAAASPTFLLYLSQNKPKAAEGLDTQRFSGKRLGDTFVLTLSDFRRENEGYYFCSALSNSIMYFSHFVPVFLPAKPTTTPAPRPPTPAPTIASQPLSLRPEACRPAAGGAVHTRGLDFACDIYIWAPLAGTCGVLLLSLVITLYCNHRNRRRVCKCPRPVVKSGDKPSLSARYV
Procedure: To obtain the results shown in FIG. 3A, that determined EC₅₀ values for antigen-specific binding, CD8-overexpressing HEK293T cells were dissociated in Versine solution (PBS buffer at pH 7.4 supplemented with 0.5 mM EDTA), and 2×10⁵ total cells were transferred to a V-bottom 96 well culture plate (Corning). Cells were washed twice with Cell Staining buffer (#420201, Biolegend). Each anti-CD8α antibody with human IgG1 isotype and Fc-silencing mutations L234A, L235A and P329A was diluted in four-fold antibody titration series from 100 μg/mL to 6.1 ng/ml into Cell Staining buffer. eFluor 780 Fixable Viability dye (eBioscience) was also included during antibody solutions at a 1:4000 dilution. Cells were stained with each diluted antibody solution for 30 minutes on ice. Cells were then washed three times with Cell Staining buffer and primary antibody binding was detected by staining with anti-human Fc BV421 conjugate antibody (#410704, Biolegend) at 1:100 dilution for 30 minutes on ice. After staining with the secondary detection antibody, cells were washed three times with Cell Staining buffer, fixed in FluoroFix buffer (Biolegend) and kept at 4° C. in the dark until analysis. Flow cytometry analysis on each sample was performed on an Agilent NovoCyte flow cytometer. Flow cytometry data was analyzed by Flowjo 10 (Becton, Dickinson & Company) to measure the geometric median fluorescence intensity (gMFI) of the on-cell binding from each antibody. The gMFI values were normalized with the gMFI measured in the sample stained with only the secondary detection antibody and plotted against the concentration of the added antibodies. The binding curves were constructed using the Graphpad Prism software, and EC₅₀ values were determined by non-linear curve fitting.

[3] = target: T4, custom recombinant human CD8α mouse IgG2a Fc fusion protein (human; mouse, UniProt P01732 22-182, limits assumed); experiment: BLI kinetics, biotin-conjugated F(ab') on SA-XT sensor, HuCD8a mouse Fc fusion as analyte, 37 °C
T4 construct: Custom protein; also called human CD8α mouse Fc fusion protein; not shown: mouse IgG2a Fc
T4 sequence (P01732 22-182 limits assumed): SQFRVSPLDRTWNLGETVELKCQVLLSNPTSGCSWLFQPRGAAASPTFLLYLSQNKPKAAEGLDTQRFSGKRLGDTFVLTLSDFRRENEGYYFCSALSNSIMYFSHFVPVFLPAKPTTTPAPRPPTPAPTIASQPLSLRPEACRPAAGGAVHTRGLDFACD
Procedure: The global fitting was performed with a 1:1 fitting model using GatorOne software as described below.
To measure the binding kinetics of the biotin-conjugated Fab molecule, streptavidin-immobilized SA-XT sensors (#160029, Gator Bio) were prehydrated in the kinetic buffer and loaded with […] biotinylated Fab sample CBD1033.37 or CBD1033.24 to a threshold response of 10 nm. […] The binder-loaded sensors were incubated in the diluted solutions to capture the CD8α protein for 1200 s to record the association phase. Sensors were finally incubated in the kinetic buffer for another 1200 s to record the dissociation phase. The spin speed for all steps was 1000 rpm. The temperature of the performed assays were at 37° C. during the association and dissociation. The sensor data were baseline subtracted, and global curve fitting of the kinetic data from six different analyte concentrations at a 1:1 monovalent binding model was performed using the GatorOne software (version v2.10) to determine the kinetic rate constants (kₒₙ and koff) and equilibrium dissociation constants (KD) of the analyzed binder.

[4] = target: T5, cynomolgus macaque CD8αα homodimer, recombinant protein (cynomolgus macaque); experiment: BLI kinetic sensorgram, 1:1 global fit (legend: 30 °C; FIG. 2I prints 37 °C for the same constants)
T5 construct: also called cynomolgus CD8αα homodimer
Procedure: (§1) Biolayer interferometry kinetic assays were performed using a GatorBio Gator Plus BLI system. Kinetic buffer containing PBS plus 0.1% Tween 20 and 0.2% BSA was used for calculating the baseline. To measure the binding kinetics of anti-CD8α antibody fragment (Fab), streptavidin-immobilized SA-XT sensors (#160029, Gator Bio) were prehydrated in the kinetic buffer and loaded with […] biotinylated CD8α recombinant protein (CDA-H82E3, Acro Biosystems) at a spin speed of 400 rpm to a threshold response of 10 nm. The sensors were then incubated in the kinetic buffer for 300 s to acquire a baseline measurement prior to each association. […] The antigen-loaded sensors were incubated in the diluted solutions to capture Fab fragments for 300 s to record the association phase. Sensors were finally incubated in the kinetic buffer for 900 s to record the dissociation phase. The spin speed for all steps except the antigen loading step was 1000 rpm. The temperature of the performed assays was either 30° C. or 37° C. during the association and dissociation phases. Sensor data were baseline subtracted, and global curve fitting of the kinetic data from six different analyte concentrations at a 1:1 monovalent binding model was performed using GatorOne software (version v2.10) to determine kinetic rate constants (kₒₙ and koff) and equilibrium dissociation constants (KD) of the analyzed antibodies.
(§2) The binding kinetics of CBD1033 Fab and its parental CBD1017ch Fab against human CD8αα homodimer, human CD8αβ heterodimer, and cynomolgus macaque CD8ααhomodimer were assessed following the same method in BLI evaluation of humanized Fab variants. For evaluating the binding kinetics against cynomolgus macaque CD8αβ heterodimer protein, the antigen protein was directly coupled onto amine-reactive biosensor tips (Gator Bio) following the manufacturer protocol. Briefly, the sensors were activated for 300 s with a mixture of 1-ethyl-3-(3-dimethylaminopropyl)carbodiimide hydrochloride (EDC) (ThermoFisher Scientific) and 10 mM N-Hydroxysulfosuccinimide sodium salt (sulfo-NHS) (Sigma-Aldrich) in water.

[5] = target: T5, cynomolgus macaque CD8αα homodimer, …; experiment: BLI kinetics, Fab, 37 °C as printed in the table
Procedure: as §1, §2

[6] = target: T1, human CD8αα homodimer, recombinant …; experiment: BLI kinetics, Fab, 37 °C
Procedure: as §1, §2

[7] = target: human CD8αβ heterodimer, recombinant protein (human, UniProt P01732 22-182; P10966 22-170, limits assumed); experiment: BLI kinetics, Fab, 37 °C
human CD8αβ heterodimer, recombinant protein, sequence (P01732 22-182 limits assumed, chain 1 of 2): as the sequence (P01732 22-182 limits assumed) above
human CD8αβ heterodimer, recombinant protein, sequence (P10966 22-170 limits assumed, chain 2 of 2): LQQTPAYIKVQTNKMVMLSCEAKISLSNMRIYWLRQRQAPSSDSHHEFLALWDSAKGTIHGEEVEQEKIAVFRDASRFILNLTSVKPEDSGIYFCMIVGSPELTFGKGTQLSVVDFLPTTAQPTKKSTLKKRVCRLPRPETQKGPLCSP
Procedure: as §1, §2

[8] = target: T1, human CD8αα homodimer, recombinant …; experiment: BLI kinetics, F(ab) on biotinylated CD8α (SA-XT sensor), 1:1 fit, 37 °C [CONT'ED]
Procedure: as §1

[9] = target: T1, human CD8αα homodimer, recombinant …; experiment: BLI kinetics, F(ab) on biotinylated CD8α (SA-XT sensor), 1:1 fit, 30 °C
Procedure: as §1

[10] = target: T6, cynomolgus macaque CD8αβ heterodimer, recombinant protein (cynomolgus macaque); experiment: BLI kinetics, Fab, antigen amine-coupled to the sensor, 30 °C
T6 construct: In BLI coupled directly to amine-reactive sensor tips; also called cynomolgus CD8αβ heterodimer
Procedure: The binding kinetics of CBD1033 Fab and its parental CBD1017ch Fab against human CD8αα homodimer, human CD8αβ heterodimer, and cynomolgus macaque CD8ααhomodimer were assessed following the same method in BLI evaluation of humanized Fab variants. For evaluating the binding kinetics against cynomolgus macaque CD8αβ heterodimer protein, the antigen protein was directly coupled onto amine-reactive biosensor tips (Gator Bio) following the manufacturer protocol. Briefly, the sensors were activated for 300 s with a mixture of 1-ethyl-3-(3-dimethylaminopropyl)carbodiimide hydrochloride (EDC) (ThermoFisher Scientific) and 10 mM N-Hydroxysulfosuccinimide sodium salt (sulfo-NHS) (Sigma-Aldrich) in water. The cynomolgus macaque CD8αβ protein diluted to […] in 10 mM sodium acetate buffer, pH 6.0, was allowed to be covalently captured for 300 s to an approximate threshold of 5 nm, and the sensors were subsequently deactivated with 1 M ethanolamine (ETA) (Sigma-Aldrich) solution, pH 8.5, for 300 s. The sensors were then rinsed in the kinetic buffer for 600 s. The rinse step was repeated for an additional 120 s for baseline calculation prior to the measurements of the binding kinetics. The antibody fragment was diluted into kinetic buffer via 3-fold dilution at concentrations ranging from 1000 nM to 1.37 nM. As above, the antigen-captured sensors were incubated in the diluted solutions to capture the Fab fragments for 1200 s to record the association phase. Sensors were subsequently incubated in the kinetic buffer for 1200 s to record the dissociation phase. The shaking speed for all steps was 1000 rpm and the temperature of the performed assays were at 30° C. The kinetic parameters were determined with 1:1 monovalent (Langmuir) binding model using the previous method.

T1 sequence (P01732 22-182 limits assumed): as the sequence (P01732 22-182 limits assumed) above

B1: CBD1032 whole antibody, Fc-silenced human IgG1 (LALAPA) (antibody, V domains shown)
VH: QVQLVQSGAEVKKPGASVKVSCKASRYTFTDYNLHWVRQAPGQGLEWMGFIYPYNGGTGYAQKFQGRVTMTRDTSTSTVYMELSSLRSEDTAVYYCARDHRYNEGVSFDYWGQGTTVTVSS
VL: DIQMTQSPSSLSASVGDRVTITCRASESVDGFGNSFMNWYQQKPGKAPKLLIYLASNLESGVPSRFSGSGSGTDFTLTISSLQPEDFATYYCQQNNEDPYTFGQGTKLEIKR
Kd [1]: 1.4 nM
polyreactivity ELISA score (insulin (Sigma)): 1
EC50 [2]: 2.35 nM

B2: maleimide-PEG-biotin conjugated CBD1033.24 F(ab') (IgG4-derived) (Fab, V domains shown)
VH: B1 VH with R72V, V79A
VL: B1 VL with M4L, V19A, L82V
modifications: maleimide-PEG11-biotin on CH C227 (sequential numbering, corresponding to C239 in Kabat numbering)
notes: Loaded on streptavidin sensors through the biotin; also called biotinylated Fab sample CBD1033.24
Kd [3]: 4.01 nM
koff [3]: 0.00013 s⁻¹
kon [3]: 32400 M⁻¹ s⁻¹

B3: CBD1035 whole antibody, Fc-silenced human IgG1 (LALAPA) (antibody, V domains shown)
VH: B1 VH with V20I, M48I, V68A, M70L, R72V, V79A, V117L
VL: B1 VL with M4L, V19A, L82V
Kd [1]: 2.66 nM
polyreactivity ELISA score (insulin (Sigma)): 1
EC50 [2]: 1.75 nM

B4: CBD1034 whole antibody, Fc-silenced human IgG1 (LALAPA) (antibody, V domains shown)
VH: B1 VH with R72V, V79A
VL: B1 VL with M4L, V19A, G72R, L82V
Kd [1]: 4.63 nM
polyreactivity ELISA score (insulin (Sigma)): 1
EC50 [2]: 2.71 nM

B5: CBD1017ch Fab (chimeric CT8 Fab) (Fab, V domains shown)
VH: EVQLQQSGPELVKPGASVKISCKASRYTFTDYNLHWVKLSHEKSLEWIGFIYPYNGGTGYNQKFKNKAKLTVDYSSSTAYMELRSLTSVDAAVYYCARDHRYNEGVSFDYWGQGTTLTVSS
VL: NIVLTQSPASLAVSLGQRATISCRASESVDGFGNSFMNWYQQKPGQSPKLLIYLASNLESGVPARFSGSGSRTDFTLTIDPVEADDAATYYCQQNNEDPYTFGGGTKLEIK
notes: Chimeric: variable regions of mouse CT8 (clone RPA-T8) with human constant parts; also called parental CBD1017ch Fab
Kd [4]: 2.26 nM
koff [4]: 6.93e-05 s⁻¹
kon [4]: 30700 M⁻¹ s⁻¹
Kd [5]: 2.26 nM
koff [5]: 6.93e-05 s⁻¹
kon [5]: 30700 M⁻¹ s⁻¹
Kd [6]: 1.08 nM
koff [6]: 7.53e-05 s⁻¹
kon [6]: 69500 M⁻¹ s⁻¹
Kd [7]: 5.75 nM
koff [7]: 0.000179 s⁻¹
kon [7]: 31200 M⁻¹ s⁻¹
Kd [8]: 1.08 nM
koff [8]: 7.53e-05 s⁻¹
kon [8]: 69500 M⁻¹ s⁻¹
Kd [9]: 0.814 nM
koff [9]: 5.67e-05 s⁻¹
kon [9]: 69700 M⁻¹ s⁻¹
Kd [10]: 24.8 nM
koff [10]: 0.000503 s⁻¹
kon [10]: 20300 M⁻¹ s⁻¹
